Residue numbers refer to the chain shown, from its start. In names and notes the source's numbering stands. Values belong to the binder of their own block, whether it stands above or below them.
Key:
GST-praja2_(550–610) = target: T1, GST-praja2_(550–610) (human, UniProt O43164 550-610, fluorescent dye on primary amines (NHS-ester labelling)); test: MST; Monolith NT 115; GST-praja2 fragments labelled with NHS-ester dye, TBC1D31 peptides titrated (16-point 1:1 dilution); 25°C, 20 mM NaP, 200 mM NaCl, 1 mM DTT, 0.05% Tween-20, pH 7.4; details: both partners purified
T1 construct: praja2 (PJA2), human, residues 550-610; The results call P1-P3 synthetic peptides; the methods describe recombinant GST fusions; also called P2; source: recombinant, purified (GST Trap, Superdex 75 gel filtration)
T1 sequence (looked up): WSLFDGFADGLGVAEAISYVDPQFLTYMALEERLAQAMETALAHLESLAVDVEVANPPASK

GST-praja2_(530–570) [1] = target: T2, GST-praja2_(530–570) (human, UniProt O43164 530-570, fluorescent dye on primary amines (NHS-ester labelling)); test: as above; details: both partners purified
T2 construct: praja2 (PJA2), human, residues 530-570; The results call P1-P3 synthetic peptides; the methods describe recombinant GST fusions; also called P1; source: recombinant, purified (GST Trap, Superdex 75 gel filtration)
T2 chain (looked up): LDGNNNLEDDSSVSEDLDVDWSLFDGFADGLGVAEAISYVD

GST-praja2_(530–570) [2] = target: T3, GST-praja2_(530–570) (human, UniProt O43164 530-570, fluorescent dye on primary amines (NHS-ester labelling)); test: MST
T3 chain: T2 chain (looked up)

Kd (GST-praja2_(550–610)): 80 µM | Kd (GST-praja2_(530–570) [1]): 37 µM
B1: peptide of the C-terminus segment of TBC1D31 (peptide)
peptide: WDTTGQNLIKKVRNLRQRLTARARHRCQTPHLLAA
notes: TBC1D31, human, C-terminus segment; also called WA35 TBC1D31; wild-type TBC1D31 peptide; source: synthetic peptide (bought: Shanghai Apeptide Co., Ltd)

Kd (GST-praja2_(530–570) [2]): ~65 µM | binding result (GST-praja2_(530–570) [1]): binds
B2: double AA mutant TBC1D31 peptide (peptide)
peptide: B1 peptide with R13A, R16A
notes: TBC1D31, human, C-terminus segment peptide with R948A and R951A; also called TBC1D31AA; R948A-R951A; source: synthetic peptide (bought: Shanghai Apeptide Co., Ltd)

Source: publication PMC8126939, “The TBC1D31/praja2 complex controls primary ciliogenesis through PKA‐directed OFD1 ubiquitylation” (The EMBO Journal, 2021)
